# Data taken from paper PMC4938799, “LD Motif Recognition by Talin: Structure of the Talin-DLC1 Complex” (Structure(London, England:1993), 2016).
# Tested on: A549 human non-small cell lung cancer line
# Test: Transwell cell migration assay
# Assay type: cell-based
# Conditions: transfected A549, transwell, 24 h; mean over three experiments
# From the text: Figure 6 Talin R8 Mutations Disrupt the Interaction with DLC1 and Affect Its Biological Activity (A) Wild-type GST-talin fragments pull down more DLC1 than the 2E mutants. Extracts of HEK293T cells transfected with GFP-DLC1 and GST-talin constructs were subjected to pull-down assays with glutathione beads followed by immunoblotting with anti-GST and anti-DLC1 on the same membrane (top). The transfected GFP-DLC1 in each sample is shown by the anti-DLC1 blot (bottom) as a loading control. (B) Wild-type GST-talin fragments compete efficiently with endogenous talin to form a complex with DLC1. The supernatants collected after pull-down assay from (A) were reused for co-immunoprecipitation with an anti-talin antibody and blotted with anti-DLC1 (top). A small aliquot from each lane was blotted for endogenous talin as a loading control (bottom). (C) Co-expression of GST or GST-talin fragments (wild-type or 2E mutant) with GFP DLC1 in A549 cells. […] Transfected A549 cells were cultured in G418 for 3 weeks, and colonies counted and quantitated (top). […] Transfected A549 cells were grown for 3 weeks in soft agar, and colonies counted and quantitated (top). […] Lysates from migrated cells were quantitated (top), and representative microscopic images of the migrated cells are shown (bottom). […]
molecule,measurement,value
"GST-R8: GST-tagged talin R8, amino acids 1,453–1,580 (protein, left off: GST, end not stated, kept) NSQAGQQGLVEPTQFARANQAIQMACQSLGEPGCTQAQVLSAATIVAKHTSALCNSCRLASARTANPTAKRQFVQSAKEVANSTANLVKTIKALDGDFTEENRAQCRAATAPLLEAVDNLSAFASNPE",cell migration,no detectable biological activity
